Experimental data from US20250388664A1 (BIOARCTIC, published 2025).
Like-named read-outs stand apart in the source and are kept apart here.

T1: h/m apical domain chimera (SEQ ID NO:112) (human/mouse chimera)
T1 construct: also called chimeric TfR1 consisting of human apical domain grafted on mouse TfR1 ectodomain
T1 chain: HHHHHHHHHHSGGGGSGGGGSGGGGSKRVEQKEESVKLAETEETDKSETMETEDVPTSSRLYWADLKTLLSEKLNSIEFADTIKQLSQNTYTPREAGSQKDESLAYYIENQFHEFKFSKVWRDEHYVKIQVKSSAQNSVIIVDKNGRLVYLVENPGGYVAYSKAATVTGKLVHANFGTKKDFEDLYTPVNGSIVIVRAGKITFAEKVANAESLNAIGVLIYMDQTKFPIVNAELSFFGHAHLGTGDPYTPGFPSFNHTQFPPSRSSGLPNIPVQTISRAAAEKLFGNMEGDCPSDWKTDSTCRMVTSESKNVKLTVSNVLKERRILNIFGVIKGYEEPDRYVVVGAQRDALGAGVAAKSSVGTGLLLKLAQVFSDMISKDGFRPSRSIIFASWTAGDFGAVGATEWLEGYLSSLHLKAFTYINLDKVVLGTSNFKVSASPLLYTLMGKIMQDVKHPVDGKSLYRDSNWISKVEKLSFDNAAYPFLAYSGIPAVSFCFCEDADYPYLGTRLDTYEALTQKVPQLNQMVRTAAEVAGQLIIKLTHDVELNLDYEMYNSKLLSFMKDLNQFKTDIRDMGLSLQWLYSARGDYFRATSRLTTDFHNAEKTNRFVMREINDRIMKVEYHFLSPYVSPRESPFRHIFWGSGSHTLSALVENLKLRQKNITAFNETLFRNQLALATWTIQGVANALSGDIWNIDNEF

T2: h/m helical domain chimera (SEQ ID NO:113) (human/mouse chimera, UniProt Q62351 90-763 (mouse entry))
T2 construct: also called chimeric TfR1 consisting of human helical domain grafted on mouse TfR1 ectodomain
T2 chain: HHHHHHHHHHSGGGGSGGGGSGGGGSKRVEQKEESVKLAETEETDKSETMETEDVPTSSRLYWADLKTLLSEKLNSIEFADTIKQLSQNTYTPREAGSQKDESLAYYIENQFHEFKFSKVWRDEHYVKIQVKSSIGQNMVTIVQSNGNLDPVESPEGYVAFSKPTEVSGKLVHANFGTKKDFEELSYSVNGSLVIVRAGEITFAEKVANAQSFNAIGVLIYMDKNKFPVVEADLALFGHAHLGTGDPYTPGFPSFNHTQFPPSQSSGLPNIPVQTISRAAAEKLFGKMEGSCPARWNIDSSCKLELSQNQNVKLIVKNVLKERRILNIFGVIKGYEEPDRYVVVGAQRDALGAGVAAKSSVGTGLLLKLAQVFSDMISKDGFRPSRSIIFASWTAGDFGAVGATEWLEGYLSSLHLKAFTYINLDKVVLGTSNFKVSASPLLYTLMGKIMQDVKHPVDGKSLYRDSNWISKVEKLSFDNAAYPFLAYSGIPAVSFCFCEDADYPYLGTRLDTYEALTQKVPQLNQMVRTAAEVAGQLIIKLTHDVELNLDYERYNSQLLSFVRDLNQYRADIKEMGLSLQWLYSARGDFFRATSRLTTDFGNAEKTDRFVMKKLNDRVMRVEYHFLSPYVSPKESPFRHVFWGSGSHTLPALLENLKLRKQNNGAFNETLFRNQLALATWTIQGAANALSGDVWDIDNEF

T3: truncated cTfR1 of SEQ ID NO:123 (cynomolgus monkey, UniProt Q5RDH6 122-760 (Pongo abelii entry))
T3 construct: also called cynomolgus TfR1
T3 chain: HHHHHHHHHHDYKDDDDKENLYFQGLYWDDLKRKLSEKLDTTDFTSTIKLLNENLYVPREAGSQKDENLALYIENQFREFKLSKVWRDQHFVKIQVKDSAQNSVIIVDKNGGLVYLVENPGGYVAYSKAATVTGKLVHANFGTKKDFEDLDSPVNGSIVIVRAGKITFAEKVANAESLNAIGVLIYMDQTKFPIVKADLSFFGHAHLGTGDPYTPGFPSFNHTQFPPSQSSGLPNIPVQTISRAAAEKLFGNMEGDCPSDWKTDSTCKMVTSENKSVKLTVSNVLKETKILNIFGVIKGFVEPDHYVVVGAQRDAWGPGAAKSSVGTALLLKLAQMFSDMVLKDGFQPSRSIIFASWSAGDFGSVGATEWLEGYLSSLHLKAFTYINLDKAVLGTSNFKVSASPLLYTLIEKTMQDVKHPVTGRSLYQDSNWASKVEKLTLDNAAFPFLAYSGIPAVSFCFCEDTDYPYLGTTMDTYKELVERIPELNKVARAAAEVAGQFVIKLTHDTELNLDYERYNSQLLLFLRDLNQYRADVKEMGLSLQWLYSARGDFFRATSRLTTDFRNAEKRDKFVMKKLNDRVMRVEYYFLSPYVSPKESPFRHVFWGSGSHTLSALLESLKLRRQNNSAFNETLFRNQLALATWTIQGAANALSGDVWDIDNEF

B1: 24B4 (antibody, V domains shown)
VH: EVQLQQFGAELVKPGTSVKISCKASGYTFTDYNMDWVKQGHGKGLEWIGDINPNYDTTSYSQKFKGKATLTVDKSSSTAYMELRSLTSEDTAVYYCARSEAGNYYWYFDVWGAGTTVTVSS
VL: DIVMSQSPSSLAVSVGEKVTMSCKSSQSLLYSSNRKNYLAWYRQKPGQSPKLLIYWASTRESGVPDRFTGSGSGTDFTLTISSVKAEDLAVYSCQQYYNYPYTFGGGTKLEIK
notes: also called mouse antibody 24B4; clone 24B4
B2: BA001 (bispecific antibody, human IgG1, kappa)
light: EIVLTQSPLSLSVTLGQSASISCRSSQSLLDSNGKTYLHWFILRPGQSPRRLIYLVSILDSGVPDRFSGSGSGTDFTLKISRVEAEDVGVYYCVQGTHFPFTFGSGTKLEIKRTVAAPSVFIFPPSDEQLKSGTASVVCLLNNFYPREAKVQWKVDNALQSGNSQESVTEQDSKDSTYSLSSTLTLSKADYEKHKVYACEVTHQGLSSPVTKSFNRGEC
heavy 1: not shown
heavy 2: EVQLVQSGAEVVKPGASVRLSCKASGYSFTGFTMNWVRQALGQGLEWMGLINPYNGVTTYNQKFKGRLTMTRDMSTRTVYMDLSSLTYEDTAVYYCTREGNWEGVYWGQGTLVTVSSASTKGPSVFPLAPSSKSTSGGTAALGCLVKDYFPEPVTVSWNSGALTSGVHTFPAVLQSSGLYSLSSVVTVPSSSLGTQTYICNVNHKPSNTKVDKKVEPKSCDKTHTCPPCPAPELLGGPSVFLFPPKPKDTLMISRTPEVTCVVVDVSHEDPEVKFNWYVDGVEVHNAKTKPREEQYNSTYRVVSVLTVLHQDWLNGKEYKCAVSNKALPAPIEKTISKAKGQPREPQVYTLPPCRDELTKNQVSLWCLVKGFYPSDIAVEWESNGQPENNYKTTPPVLDSDGSFFLYSKLTVDKSRWQQGNVFSCSVMHEALHNHYTQKSLSLSPGGGGGSGGGGSGGGGSGGGGSDIQMTQSPSSVSASVGDRVTITCKSSQSLLYSTNQKNYLAWYQQKPGKAPKLLIYWASTRESGVPSRFSGSGSGTDFTLTISSLQPEDFATYYCQQYFIYPRTFGCGTKVEIKGGGGSGGGGSGGGGSGGGGSEVQLVQSGAEVKKPGSSVKVSCKASGYIFTDYNMDWVRQAPGQCLEWIGDINPDADTTSYNEKFKGRATLTVDKSTSTAYMELSSLRSEDTAVYYCARGGYSGSSYYHPMDYWGQGTLVTVSS

Assays:
[1] = molecular target: T1, h/m apical domain chimera (SEQ ID …); test: indirect ELISA: plate coated with 1 µg/ml h/m apical domain chimera, mouse IgG titrated, anti-mouse IgG-HRP; x axis printed as 'TfR (ng/ml)'
Description: Plasma samples serially diluted from a starting dilution of 1/450 or hybridoma supernatants diluted 1/2 were added to the plates (50 μl/well; dilution buffer: PBS with 0.1% BSA and 0.05% TWEEN®-20) and incubated for 2 h at room temperature and then the plates were washed four times. […] After another wash (as above), 50 μl/well TMB substrate (K-Blue® Aqueous, Neogen) was added, and the reaction was stopped after 10-15 min with 50 μl/well of 0.5 M H₂SO₄. The optical density at 450 nm was read using a plate reader (Tecan). The endpoint titers were defined as the dilution above the average of the blank wells (background) plus 3 standard deviations of the blank wells.
(§1) In the ELISA experiment, human, mouse or three different chimeric TfR1 receptors were used to coat ELISA plates (FIGS. 30A-30E). The ELISA protocol was slightly modified as follows from the indirect ELISA described in Example 15. […] The coated plates were then blocked. Dilution series of mouse IgG of the analyzed antibodies were prepared in PBS and incubated on the ELISA plates. Unbound antibodies were then washed off before incubating wells with a HRP-conjugated secondary, anti-mouse-IgG for 1 h. Plates were then washed again before addition of HRP substrate TMB for development and detection of antibody binding to the wells. TMB development was stopped by adding 0.5 M H₂SO₄ to the wells and ELISA responses measured as the OD at 450 nm in an ELISA plate reader.

[2] = molecular target: T2, h/m helical domain chimera (SEQ ID …); test: indirect ELISA: plate coated with 1 µg/ml h/m helical domain chimera, mouse IgG titrated, anti-mouse IgG-HRP; x axis printed as 'TfR (ng/ml)'
Description: as §1

AβpE3-40 monomer [3] = molecular target: T4, AβpE3-40 monomer (UniProt P05067 674-711, pyroglutamate at position 3 (N-terminal residue)); test: SPR, antibody immobilised, monomer injected, 1:1 fit
T4 construct: range 3-40 (Aβ numbering); Synthetic peptide (Bachem/Anaspec), verified monomeric by SEC; also called monomeric AβpE3-40
T4 sequence (P05067 674-711): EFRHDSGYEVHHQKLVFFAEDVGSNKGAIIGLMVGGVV

AβpE3-40 monomer [4] = molecular target: T4, AβpE3-40 monomer; test: inhibition ELISA, antigen titrated in solution, AβpE3-40 coat
Description: (§2) The tested molecules were incubated at a fixed concentration (0.1 μg/ml) with titrating concentrations of the different AβpE3 antigens. After incubation for 45 min at 900 rpm to reach equilibrium, the samples were added to a blocked and washed ELISA plate with an AβpE3-40 coat (0.5 μM). The samples were incubated on the plate for 25 min without shaking followed by washing, incubation with detection antibody, another washing step and finally incubation with alkaline phosphatase substrate.

AβpE3-42 protofibrils = molecular target: T5, AβpE3-42 protofibrils (UniProt P05067 674-713, pyroglutamate at position 3 (N-terminal residue)); test: as above
T5 construct: range 3-42 (Aβ numbering); Soluble aggregates made from AβpE3-42 peptide, purified in the void peak of SEC; also called AβpE3-42 PF
T5 sequence (P05067 674-713): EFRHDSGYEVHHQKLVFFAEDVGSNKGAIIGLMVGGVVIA
Description: as §2

AβpE3-40 monomer [5] = molecular target: T4, AβpE3-40 monomer; test: SPR, antibody immobilised, monomer injected, 1:1 fit; remark: listed apart in the source
Description: Single cycle kinetics with the binding molecules immobilized on a CM5 chip was used to measure binding to the AβpE3-40 monomer. For the measurements, 5 μg/ml of analyte binding molecule was immobilized on the chip. […] Regeneration of the surface between cycles was done by injecting 30 μl 3 M MgCl₂ (Cytiva, cat. No. 29234600). The binding data was fitted to a 1:1 interaction model.

[6] = molecular target: T6, truncated hTfR1 of SEQ ID NO:122 (human, UniProt P02786 122-760); test: SPR, FLAG-captured TfR1, bispecific injected, 1:1 fit
T6 construct: also called human TfR1; Human TfR1

AβpE3-40 monomer [7] = molecular target: T4, AβpE3-40 monomer; test: cell-based or functional assay
[8] = molecular target: T6, truncated hTfR1 of SEQ ID NO:122; test: SPR, FLAG-captured TfR1, bispecific injected, 1:1 fit; remark: listed apart in the source
Description: (§3) Binding of the purified bispecific binding molecules produced in Example 47 to human and cynomolgus TfR1 was evaluated using SPR on a Biacore 8K instrument (Cytiva). […] The interaction was measured using the single cycle kinetics method with a contact time of 120 s at a flow rate of 30 μl/min followed by a dissociation time of 600 s. Regeneration of the surface between cycles was done by injecting 10 mM glycine-HCl, pH 1.7. The binding data was fitted to a 1:1 interaction model. The tested molecules were diluted in HBS-EP+ (Cytiva, #BR100669). Experiments were performed at 25° C.

[9] = molecular target: T3, truncated cTfR1 of SEQ ID NO:123; test: as above
Description: as §3

Row | Binder | binding result [1] | binding result [2] | Kd (AβpE3-40 monomer [3]) [nM] | koff (AβpE3-40 monomer [3]) [s⁻¹] | kon (AβpE3-40 monomer [3]) [M⁻¹ s⁻¹] | IC50 (AβpE3-40 monomer [4]) [nM] | IC50 (AβpE3-42 protofibrils) [nM] | Kd (AβpE3-40 monomer [5]) [nM] | koff (AβpE3-40 monomer [5]) [s⁻¹] | kon (AβpE3-40 monomer [5]) [M⁻¹ s⁻¹] | Kd [6] [nM] | koff [6] [s⁻¹] | kon [6] [M⁻¹ s⁻¹] | Uptake of AβpE3-40 monomers in THP-1 cells, EC50 (AβpE3-40 monomer [7]) [nM] | Kd [8] [nM] | koff [8] [s⁻¹] | kon [8] [M⁻¹ s⁻¹] | Kd [9] [nM] | koff [9] [s⁻¹] | kon [9] [M⁻¹ s⁻¹]
1 | B1 | no binding (tested: about 600 ng/ml) | no binding (tested: about 600 ng/ml) | – | – | – | – | – | – | – | – | – | – | – | – | – | – | – | – | – | –
2 | B2 | – | – | 2.1 | 0.00011 | 54000 | 1.1 | 3.1 | 2.17 | 0.00012 | 55800 | 174 | 0.0038 | 22000 | 2 | 190 | 0.0042 | 22000 | 525 | 0.01 | 19000
